Measured values: the supplement of paper PMC7877785
± gives the uncertainty stated by the source.

Assay: self-splicing fitness, log relative to wild type (ln ratio); higher = more splicing; Tetrahymena group I intron in knt gene, E. coli kanamycin selection, DiMSum; sequences stand for … in CUCUCU…GGAGGGAAAAGUUAUCAGGCAUGCACCUGGUAGCUAGUCUUUAAACCAAUAGAUUGCAUCGGUUUAAAAGGCAAGACCGUCAAAUUGCGGGAAAGGGGUCAACAGCCGUUCAGUACCAAGUCUCAGGGGAAACUUUGAGAUGGCCUUGCAAAGGGUAUGGUAAUAAGCUGACGGACAUGGUCCUAACCACGCAGCCAAGUCCUAAGUCAACAGAUCUUCUGUUGAUAUGGAUGCAGUUCACAGACUAAAUGUCGGUCGGGGAAGAUGUAUUCUUCUCAUAAGAUAUAGUCGGACCUCUCCUUAAUGGGAGCUAGCGGAUGAAGUGAUGCAACACUGGAGCCGCUGGGAACUAAUUUGUAUGCGAAAGUAUAUUGAUUAGUUUUGGAGUACUCGUGGUCG
Method in brief: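 Library with all eight P1ex-region intron nucleotides randomised, intron inside the knt kanamycin-resistance gene on pET-22b(+), in E. coli BL21(DE3). Cells grew overnight at 37°C or 30°C on LB agar with or without 25 μg/mL kanamycin (plus 100 μg/mL carbenicillin, 50 μM IPTG, 0.2% rhamnose), in six replicate transformations. Pooled colonies were amplicon-sequenced on Illumina HiSeq 2500. DiMSum fitness is the error-weighted combination of wild-type-normalised replicate fold changes, kanamycin versus none.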

Sequence	self-splicing fitness (ln) (30 °C)	self-splicing fitness (ln) (37 °C)
GAAUAGCAAUAUUACGCGGA	-1.54 ± 0.15	-1.43 ± 0.15
GAAUAGCAAUAUUACGCUGG	-2.17 ± 0.33	-0.278 ± 0.24
GAAUAGCAAUAUUACGCUGU	-3.12 ± 0.21	-2.1 ± 0.15
GAAUAGCAAUAUUACGCUUC	–	-1.83 ± 0.44
GAAUAGCAAUAUUACGGAUU	-0.925 ± 0.053	-0.4 ± 0.07
GAAUAGCAAUAUUACGGCAC	-0.0381 ± 0.12	-0.000648 ± 0.15
GAAUAGCAAUAUUACGGCCA	-0.596 ± 0.1	-0.0233 ± 0.13
GAAUAGCAAUAUUACGGGCU	-2.85 ± 0.16	-1.19 ± 0.13
GAAUAGCAAUAUUACGGGGG	-2.93 ± 0.26	-1.87 ± 0.25
GAAUAGCAAUAUUACGUACG	-1.38 ± 0.12	-1.45 ± 0.14
GAAUAGCAAUAUUACGUAUC	-1.7 ± 0.13	-1.75 ± 0.2
GAAUAGCAAUAUUACGUAUU	-2.18 ± 0.15	-1.45 ± 0.14
GAAUAGCAAUAUUACGUCAC	-2.47 ± 0.17	-1.31 ± 0.17
GAAUAGCAAUAUUACGUGAA	-1.74 ± 0.092	-0.782 ± 0.11
GAAUAGCAAUAUUACGUGAG	-1.19 ± 0.057	-0.737 ± 0.1
GACAAGCAAUAUUACGAACA	-1.52 ± 0.13	-0.000414 ± 0.11
GACAAGCAAUAUUACGAACU	-0.214 ± 0.066	0.284 ± 0.092
GACAAGCAAUAUUACGACAC	-0.384 ± 0.071	0.0329 ± 0.11
GACAAGCAAUAUUACGAUCU	-0.884 ± 0.079	-0.309 ± 0.097
GACAAGCAAUAUUACGCCAC	–	-2.64 ± 0.5
GACAAGCAAUAUUACGCCCG	-1.26 ± 0.17	-0.702 ± 0.37
GACAAGCAAUAUUACGCUGA	-2.53 ± 0.13	-1.55 ± 0.11
GACAAGCAAUAUUACGCUUA	-1.52 ± 0.098	-0.863 ± 0.1
GACAAGCAAUAUUACGGACU	-1.17 ± 0.075	0.137 ± 0.087

Sequence	self-splicing fitness (ln) (30 °C)	self-splicing fitness (ln) (37 °C)
GACAAGCAAUAUUACGGAUA	-1.52 ± 0.12	-1.47 ± 0.12
GACAAGCAAUAUUACGGCAG	-4.14 ± 0.31	-3.08 ± 0.35
GACAAGCAAUAUUACGGCAU	-0.363 ± 0.067	0.227 ± 0.088
GACAAGCAAUAUUACGGCUC	-0.105 ± 0.07	0.0794 ± 0.1
GACAAGCAAUAUUACGGGAU	-2.65 ± 0.14	-0.632 ± 0.12
GACAAGCAAUAUUACGGGCA	-0.702 ± 0.049	-0.0944 ± 0.056
GACAAGCAAUAUUACGGGCG	-1.27 ± 0.061	-0.455 ± 0.072
GACAAGCAAUAUUACGUCUU	-2.08 ± 0.082	-1.05 ± 0.085
GACAAGCAAUAUUACGUGUC	-4.44 ± 0.28	-3.22 ± 0.37
GACAAGCAAUAUUACGUUCG	-2.99 ± 0.19	-1.61 ± 0.12
GACCAGCAAUAUUACGACUG	-2.86 ± 0.15	-2.12 ± 0.17
GACCAGCAAUAUUACGACUU	0.432 ± 0.065	0.163 ± 0.076
GACCAGCAAUAUUACGAUUA	-0.607 ± 0.056	-0.446 ± 0.072
GACCAGCAAUAUUACGCAAC	-1.35 ± 0.082	-0.681 ± 0.1
GACCAGCAAUAUUACGCCGU	-0.962 ± 0.075	-0.0427 ± 0.08
GACCAGCAAUAUUACGCGUG	-0.273 ± 0.041	0.216 ± 0.059
GACCAGCAAUAUUACGCUGG	-3.16 ± 0.13	-2.95 ± 0.21
GACCAGCAAUAUUACGCUUG	-0.638 ± 0.089	-0.56 ± 0.11
GACCAGCAAUAUUACGGACU	-1.55 ± 0.082	-0.595 ± 0.1
GACCAGCAAUAUUACGGAGA	-1.25 ± 0.078	-0.461 ± 0.088
GACCAGCAAUAUUACGGAGC	-0.563 ± 0.077	-0.0895 ± 0.11
GACCAGCAAUAUUACGGAUG	-0.62 ± 0.056	0.157 ± 0.077
GACCAGCAAUAUUACGGCUA	0.142 ± 0.055	0.0036 ± 0.068
GACCAGCAAUAUUACGGCUG	-3.68 ± 0.18	-3.41 ± 0.25
